± gives the uncertainty stated by the source.
B1: Dystrobrevin alpha, residues 235 to 294; numbered along this chain, Q9Y4J8 (parent)
chain: ENVFHPVECSYCHSESMMGFRYRCQQCHNYQLCQDCFWRGHAGGSHSNQHQMKEYTSWKS
B2: Myocardin, residues 363 to 406; numbered along this chain, Q8IZQ8 (parent)
chain: KPGPLPPNLDDLKVSELRQQLRIRGLPVSGTKTALMDRLRPFQD

Variants of: B1
Assay: abundance fitness (aPCA) (normalised: wild type 0, dead -1); higher = more abundant; growth selection in yeast, the domain comes from the species named
Conditions: Homo sapiens

Abundance fitness, by site and new letter:
T56: V -0.137 ± 0.06; R -0.061 ± 0.044; C 0.076 ± 0.091; S 0.104 ± 0.057; D 0.188 ± 0.076; Q 0.044 ± 0.09; P 0.126 ± 0.059; M -0.151 ± 0.12; L -0.462 ± 0.064; H -0.025 ± 0.1; W -0.605 ± 0.093; Y -0.509 ± 0.1; A 0.017 ± 0.061; F -0.642 ± 0.18; I -0.218 ± 0.097; K 0.066 ± 0.1; G 0.024 ± 0.057; E 0.307 ± 0.12; N -0.045 ± 0.19
N48: K -0.248 ± 0.13; C -0.063 ± 0.087; Y -0.318 ± 0.16; F -0.274 ± 0.08; A 0.007 ± 0.059; Q -0.084 ± 0.12; G -0.045 ± 0.052; T -0.042 ± 0.081; R -0.182 ± 0.055; L -0.22 ± 0.065; W -0.532 ± 0.092; H -0.174 ± 0.083; M -0.149 ± 0.058; P 0.108 ± 0.095; V 0.037 ± 0.063; E -0.167 ± 0.12; I -0.177 ± 0.1
W58: G 0.192 ± 0.044; F -0.021 ± 0.083; C 0.003 ± 0.07; V 0.224 ± 0.057; R 0.077 ± 0.051; M 0.251 ± 0.068; L 0.019 ± 0.068; S 0.057 ± 0.06; Y 0.142 ± 0.26; A 0.258 ± 0.05; D 0.284 ± 0.07; H 0.105 ± 0.15; N 0.232 ± 0.12; Q -0.127 ± 0.15; E 0.297 ± 0.097; K 0.195 ± 0.099; T 0.258 ± 0.075
G44: T -0.26 ± 0.099; W -0.616 ± 0.19; S -0.209 ± 0.096; Y -0.411 ± 0.19; V -0.234 ± 0.097
S60: Y -0.207 ± 0.14; N -0.216 ± 0.34; P -0.065 ± 0.092; Q 0.216 ± 0.15; A -0.446 ± 0.24; F 0.02 ± 0.12; G 0.064 ± 0.48; D 0.335 ± 0.37; I -0.519 ± 0.14; V 0.034 ± 0.18; R 0.134 ± 0.15; L -0.196 ± 0.12; H 0.112 ± 0.26; C -0.276 ± 0.14
E54: G -0.29 ± 0.5; T 0.312 ± 0.21
Y55: K -0.609 ± 0.23; F -0.155 ± 0.098; L 0.06 ± 0.075; A -0.064 ± 0.079; S 0.245 ± 0.058; I -0.066 ± 0.1; C 0.209 ± 0.085; E 0.117 ± 0.1; P -0.078 ± 0.12; N -0.144 ± 0.19; T 0.104 ± 0.095; W 0.06 ± 0.04; Q -0.071 ± 0.086; R -0.11 ± 0.066; D 0.243 ± 0.093; H -0.134 ± 0.27; V 0.238 ± 0.068
S57: A 0.085 ± 0.064; C 0.074 ± 0.065; F -0.391 ± 0.085; G -0.044 ± 0.08; N -0.291 ± 0.12; V 0.005 ± 0.068; E 0.058 ± 0.072; Q -0.059 ± 0.089; K -0.019 ± 0.069; H 0.124 ± 0.08; M 0.036 ± 0.081; R -0.152 ± 0.056; L -0.165 ± 0.056; W -0.192 ± 0.089; T 0.008 ± 0.064; P 0.171 ± 0.077; Y -0.395 ± 0.13; D 0.071 ± 0.12; I -0.11 ± 0.11
H50: F -0.755 ± 0.084; L -0.622 ± 0.052; E -0.516 ± 0.08; N -0.493 ± 0.062; I -0.524 ± 0.064; C -0.301 ± 0.067; G -0.493 ± 0.048; M -0.503 ± 0.058; K -0.438 ± 0.073; V -0.686 ± 0.049; D -0.411 ± 0.055; Y -0.527 ± 0.076; P -0.463 ± 0.052; Q -0.509 ± 0.058; W -0.624 ± 0.07; A -0.543 ± 0.053
Q49: P -0.249 ± 0.052; L -0.003 ± 0.034; G 0.103 ± 0.038; N 0.019 ± 0.062; C -0.083 ± 0.049; K -0.14 ± 0.046; A 0.073 ± 0.031; H -0.141 ± 0.076; D 0.128 ± 0.06; T 0.072 ± 0.041; I -0.205 ± 0.06; V -0.034 ± 0.036; Y -0.256 ± 0.046; F -0.138 ± 0.059; R 0.017 ± 0.035; S 0.029 ± 0.036
S45: N -0.13 ± 0.13; K 0.031 ± 0.076; R -0.159 ± 0.046; W -0.287 ± 0.087; Q -0.121 ± 0.15; P -0.043 ± 0.083; T 0.098 ± 0.07; C 0.06 ± 0.068; M -0.269 ± 0.11; Y -0.605 ± 0.2; L -0.163 ± 0.083; G 0.099 ± 0.045; E 0.065 ± 0.067; I -0.394 ± 0.14; D 0.163 ± 0.07; H -0.291 ± 0.14
M52: V -0.025 ± 0.088; P -0.478 ± 0.094; W -0.449 ± 0.099; Y -0.18 ± 0.11; H -0.87 ± 0.23; K -0.62 ± 0.12; C -0.194 ± 0.12; N -0.764 ± 0.27; G -0.554 ± 0.071; S -0.628 ± 0.09; R -0.792 ± 0.078; E -0.567 ± 0.15; I -0.3 ± 0.1; D -0.471 ± 0.12; Q -0.294 ± 0.14; L -0.248 ± 0.072; F -0.005 ± 0.096
S47: D 0.044 ± 0.056; H -0.091 ± 0.15; G -0.22 ± 0.046; P -0.172 ± 0.072; I -0.25 ± 0.076; K 0.038 ± 0.087; L -0.333 ± 0.086; Q -0.031 ± 0.11; R -0.118 ± 0.053; A -0.349 ± 0.054; C -0.103 ± 0.074; V -0.199 ± 0.051; Y -0.57 ± 0.099; M -0.322 ± 0.079; E -0.028 ± 0.064; N 0.029 ± 0.058; W -0.051 ± 0.095; F -0.455 ± 0.12
Q51: Y 0.077 ± 0.13; V -0.117 ± 0.062; G -0.234 ± 0.074; S 0.062 ± 0.06; M -0.334 ± 0.11; L -0.153 ± 0.062; N -0.095 ± 0.086; F -0.536 ± 0.18; K 0.046 ± 0.068; D 0.101 ± 0.06; C -0.148 ± 0.082; A -0.066 ± 0.098; I 0.009 ± 0.078; T 0.042 ± 0.059; H -0.319 ± 0.13; P -0.091 ± 0.086; W -0.517 ± 0.095
H46: A -0.186 ± 0.073; D -0.2 ± 0.085; Q -0.331 ± 0.13; V -0.227 ± 0.076; T -0.219 ± 0.073; R -0.189 ± 0.076; P -0.27 ± 0.093; K -0.117 ± 0.1; W -0.427 ± 0.16; M -0.17 ± 0.073; C -0.366 ± 0.11; Y -0.538 ± 0.12; I -0.366 ± 0.094; N -0.316 ± 0.14; L -0.419 ± 0.078; G -0.165 ± 0.087; F -0.514 ± 0.14; E -0.198 ± 0.081
K59: F -0.142 ± 0.1; D 0.356 ± 0.21; C -0.001 ± 0.086; Y -0.099 ± 0.19; A 0.082 ± 0.079; V -0.105 ± 0.11; Q 0.126 ± 0.12; G 0.229 ± 0.08; N 0.017 ± 0.3; P -0.034 ± 0.32; I -0.392 ± 0.38; L -0.013 ± 0.085; E -0.127 ± 0.15; H 0.074 ± 0.1; T 0.049 ± 0.083
K53: T -0.154 ± 0.085; V 0.137 ± 0.065; Q 0.026 ± 0.089; H -0.167 ± 0.21; G -0.248 ± 0.052; Y -0.262 ± 0.11; L -0.108 ± 0.061; E -0.029 ± 0.078; R -0.111 ± 0.053; M -0.108 ± 0.092; S -0.11 ± 0.07; F -0.313 ± 0.097; A -0.135 ± 0.083; P -0.592 ± 0.13; W -0.459 ± 0.089; D -0.16 ± 0.12; C -0.137 ± 0.068; I -0.111 ± 0.1

Variants of: B2
Assay: as above
Conditions: Homo sapiens

Abundance fitness, by site and new letter:
L9: E -0.807 ± 0.1; H -0.542 ± 0.15
V14: S -0.486 ± 0.15; C -0.603 ± 0.19; G -0.757 ± 0.1; F -0.939 ± 0.43
S15: W -0.163 ± 0.085; D 0.015 ± 0.079
L5: S -0.341 ± 0.12; R -0.448 ± 0.062
G25: R -0.401 ± 0.09; M -0.358 ± 0.14
D11: V 0 ± 0.087; L 0.009 ± 0.072; E -0.082 ± 0.093; P -0.714 ± 0.11; A 0.085 ± 0.063
R40: K 0.194 ± 0.1; V -0.376 ± 0.085; I -0.205 ± 0.19
K1: N 0.11 ± 0.17
I23: S 0.033 ± 0.067; K -0.153 ± 0.084
R38: F -0.907 ± 0.18; V -0.735 ± 0.082; K -0.39 ± 0.094
K32: G -0.856 ± 0.092; F -0.642 ± 0.15
R18: E -0.177 ± 0.15; T -0.388 ± 0.1
D44: F -0.325 ± 0.25; C -0.297 ± 0.21
R22: A -0.138 ± 0.074; G -0.531 ± 0.07
R24: N -0.695 ± 0.15
T31: F -0.718 ± 0.39; E -0.01 ± 0.11
M36: A -0.255 ± 0.066; K -0.083 ± 0.2
A34: F -0.909 ± 0.22
L39: Y -0.505 ± 0.24; K -0.595 ± 0.19; H -0.611 ± 0.17; M -0.409 ± 0.12
P4: M 0.392 ± 0.14
P27: G -0.41 ± 0.068; W -0.951 ± 0.15
L12: R -0.394 ± 0.064; K -0.284 ± 0.35; A -0.425 ± 0.061
L17: Y -1.02 ± 0.22; K -0.345 ± 0.12
E16: W -0.613 ± 0.15
G30: C -0.709 ± 0.17
D37: C -0.39 ± 0.14
Q19: P -0.761 ± 0.13
P7: G 0.142 ± 0.057
P2: M 0.387 ± 0.096; Y 0.136 ± 0.35; A 0.25 ± 0.061
F42: A 0.067 ± 0.062; H 0.139 ± 0.12
Q20: F -0.093 ± 0.16; S -0.711 ± 0.15; Y -0.38 ± 0.13; R -0.602 ± 0.11
P6: G -0.153 ± 0.057
Q43: P -0.625 ± 0.1
V28: A -0.002 ± 0.063; R -0.671 ± 0.075
G3: V 0.102 ± 0.088
N8: S -0.444 ± 0.085; C -0.342 ± 0.14
